The source of these data is PMC4605657, “Interaction between TATA-Binding Protein (TBP) and Multiprotein Bridging Factor-1 (MBF1) from the Filamentous Insect Pathogenic Fungus Beauveria bassiana” (PLoS ONE, 2015).

This assay concerns the target T1, Beauveria bassiana TATA-binding protein (BbTBP) (Beauveria bassiana, UniProt J4W563 1-253).
T1 construct: open reading frame amplified with primers PTBP-F/PTBP-R and cloned EcoRI/HindIII into pET28a; the forward primer begins at the codon after the start methionine (GAG GGC ATT ...), the reverse primer holds the stop codon; also called BbTBP1; source: E. coli Rosetta DE3, purified (Ni- or Co-NTA agarose)
T1 sequence: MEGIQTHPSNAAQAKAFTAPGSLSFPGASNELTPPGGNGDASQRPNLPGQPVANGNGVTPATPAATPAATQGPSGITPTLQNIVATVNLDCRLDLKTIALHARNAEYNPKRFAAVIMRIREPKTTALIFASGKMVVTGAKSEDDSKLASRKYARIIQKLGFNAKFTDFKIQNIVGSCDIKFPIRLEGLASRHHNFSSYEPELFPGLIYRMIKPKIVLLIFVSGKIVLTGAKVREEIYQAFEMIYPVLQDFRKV
In words: native gel or EMSA; super-shift on 6% non-denaturing PAGE; BbTBP 1129 nM and BbMBF1 855 nM with TATA-containing oligonucleotide (TATA^C 16.8 nM or TATA^P 18.3 nM); 30 min at 37°C; 60 mM KCl, 20 mM Tris pH 7.9, 5.0 mM MgCl2, 10 mM dithiothreitol, 0.2 mg/ml BSA, 10% glycerol; nucleic acid and protein stain. As to conditions: both partners purified. On the technique in general: Mobility shift assays separate free from complexed probe on a gel.

B1: Beauveria bassiana multiprotein bridging factor 1 (BbMBF1) (natural protein)
chain: not shown
notes: Multiprotein bridging factor 1 of Beauveria bassiana, locus tag BBA_01830, 153 amino acids; open reading frame amplified with primers PMBF1-F/PMBF1-R and cloned EcoRI/HindIII into pET28a; the forward primer begins at the codon after the start methionine (TCT GAC GAC ...), the reverse primer holds the stop codon; source: E. coli Rosetta DE3, purified (Ni- or Co-NTA agarose)
B1: the binding result is “binds”.
